# Assay results published in patent publication US12064464B2, “Plantaricin NC8 alpha beta markedly enhances the effects of antibiotics” (priority 2018, dated 2024).
# Entries after “also recorded” stand apart in the source; their conditions may differ.
# B1: PLNC8 αβ: two-peptide class IIb bacteriocin of L. plantarum NC8: PLNC8 α (SEQ ID NO 1) with PLNC8 β (SEQ ID NO 2) (peptide)
# alpha: DLTTKLWSSWGYYLGKKARWNLKHPYVQF
# beta: SVPTSVYTLGIKILWSAYKHRKTIEKSFNKGFYH
# modifications: Lactobacillus plantarum NC8
# Columns and labels:
# [1] = system: HaCaT cells infected with MSSA; experiment: Keratinocytes infected with MSSA: LDH, ELISA, RT-qPCR, scratch assay
# Experimental: (§1) Human keratinocytes (HaCaT) were cultured in Dulbecco's modified Eagle medium (DMEM, Fisher Scientific, New York, USA) supplemented with 10% FBS (FBS, Invitrogen Ltd, Paisley, UK) incubated in a stable environment at 95% air, 5% CO2 and 37° C. The cells were used at passages 1-20.
# (§2) HaCaT cells were cultured overnight in a 24-well plate at a seed-count of 2×10^5 cells per well. […] Co-stimulation was performed by infection of human keratinocytes, in the presence or absence of PLNC8 αβ, for 24 h, or infection of the cells for 1 h followed by addition of different concentrations of PLNC8 αβ for 6 h. Furthermore, infection of keratinocytes, with or without PLNC8 αβ, were monitored in real-time for 72 hours using IncuCyte Live-cell Analysis System. Bacterial load was quantified by measuring the fluorescence of green fluorescent protein (GFP) and cell viability was determined by measuring the fluorescent dye Draq7 that stains nuclei of dead cells.
# (§3) ELISA was performed on supernatants retrieved from human keratinocytes that were exposed to MSSA and PLNC8 αβ. The levels of CXCL8 (Human IL-8 ELISA MAX Deluxe, Nordic Biosite, Sweden) and IL-6 (Human IL-6 ELISA MAX Deluxe, Nordic Biosite, Sweden) were quantified according to the manufacturer's instructions.
# [2] = system: keratinocytes infected by S. aureus; experiment: IncuCyte live-cell analysis of infected keratinocytes; assay type: cell-based, human
# Experimental: as §2
# [3] = Fluorescence leakage assay (CF release from liposomes); details: after 2 min; both the L-form and D-form
# Experimental: Liposomes were prepared by dry film formation, hydration and finally extrusion through a polycarbonate membrane to form monodisperse large unilamellar vesicles. […] A dry lipid film was formed by evaporation of the chloroform by nitrogen flow and overnight lyophilization. The film was hydrated with either 10 mM phosphate buffer (PB) pH 7 or 10 mM phosphate buffer saline (PBS) pH 7, and the solution was vortexed for 1 min and put on a shaker for 1 h before extruded 21 times through a 100 nm pore-sized polycarbonate membrane. For fluorescence leakage assay the lipid film was hydrated with buffer (PBS) containing self-quenching concentration (50 mM) of 5(6)-carboxyfluorescein (CF) (Sigma Aldrich) and liposomes were prepared as described above. Removal of unencapsulated CF was done by gel filtration using a PD-25 column (GE Healthcare, Uppsala, Sweden) and liposomes with encapsulated CF were eluted with PBS. Leakage of the liposome encapsulated fluorophore CF due to additions of the bacteriocins was recorded using a fluorescence plate reader (Infinite 200, Tecan, Austria) where λex=485 nm and λem=520 nm. CF was encapsulated at self-quenching concentration, and CF release results in an increased fluorescence signal. […] In order to estimate the maximum release from each sample a final addition of 0.5% Triton X-100 was made at the end of all measurements and the total amount of CF (100% release) was estimated after 15 min incubation. The CF release is presented as percentage release for each time interval (measurements taken every minute). The percentage CF release is calculated as 100×(F−F0)/(FT−F0) where F0 is the initial fluorescence intensity of CF before peptide addition, F is the fluorescence intensity of CF at time point t and FT is the maximum fluorescence after the addition of Triton X-100.
# [4] = references 1, 2; cited from earlier work
# HaCaT cells = experiment: Scratch assay and ELISA on keratinocytes; assay type: cell-based, human; details: uninfected cells, 24 h
# Experimental: as §1, §2, §3
# S. epidermidis = experiment: Aggregation and ATP release; assay type: cell-based, Staphylococcus epidermidis
# Experimental: Aggregation and extracellular release of ATP were used to study the effects of PLNC8 αβ on the bacteria. ATP was registered using a luciferin/luciferase bioluminescence assay (Sigma, St. Louis, Mo, USA) in bacterial suspensions (2.5×10^8 CFU/ml). The bacteria were exposed to different concentrations of PLNC8 αβ, and real-time changes in light transmission and bioluminescence were recorded in a Chronolog lumi-aggregometer (Chrono-Log, Haverton, PA, USA) for 30 min. The levels of ATP were calculated based on the bioluminescence signals recorded in response to known concentrations of ATP.
# [5] = system: Streptococcus spp (S. mutans, S. constellatus, S. anginosus); experiment: Sytox Green uptake (membrane permeabilization); assay type: cell-based; details: 5 μM, 2 min
# Experimental: The fluorescent dye Sytox® Green, which can only cross damaged membranes and fluoresce upon binding to nucleic acids, was used to study the antimicrobial activity of PLNC8 αβ on S. epidermidis, S. aureus (MSSA, MRSA) and Streptococcus spp. The bacteria were washed and resuspended in Krebs-Ringer Glucose buffer (KRG) (120 mM NaCl, 4.9 mM KCl, 1.2 mM MgSO4, 1.7 mM KH2PO4, 8.3 mM Na2HPO4, and 10 mM glucose, pH 7.3) and incubated in the presence or absence of different combinations of PLNC8 αβ in 96-well microtiter plates for 2 min. Images were captured with Olympus BX41 at 40× magnification.
# [6] = system: antibiotic resistant bacteria; experiment: Combination of PLNC8 αβ with antibiotics, summary over tested bacteria; assay type: cell-based; details: wide range of antibiotics
# Experimental: The broth microdilution method was used to determine minimal inhibitory concentration (MIC) and minimal bactericidal concentration (MBC). Two-fold serial dilutions of the peptides were used and the final concentrations ranged from 0.097-50 μM. […] The effect of bacteriocin-antibiotic combinations was accomplished by using the same concentration series of antibiotics with a constant concentration of PLNC8 αβ (3.1 μM) in all the wells. […] All experiments were repeated at least three times.
# human erythrocytes = experiment: Hemolysis; assay type: cell-based; details: 0.5-50 μM, 1 h; listed as L-PLNC8 αβ
# Experimental: The hemolytic activity of the peptides was investigated by collecting blood from healthy volunteers in heparinized vacutainers. The blood was centrifuged at 600×g for 5 min and the erythrocyte pellet was washed three times in PBS. The cells were then suspended in PBS and added to 96-well plates (15% erythrocyte suspension/well), containing the peptides with two-fold serial dilution. The plates were incubated for 1 h at 37° C. followed by centrifugation for 5 min at 900×g and measurement of the supernatants at 540 nm. Haemolytic activity (%) was calculated by subtracting the negative control from all values and normalization against the positive control (0.5% Triton X-100), that was set to 100%. All experiments, each in duplicate, were repeated three times.
# [7] = infection 1 h, then peptide 6 h
molecule,measurement,setting,value
B1,S. aureus-mediated cytotoxicity (LDH) and cell viability,[1]; [7],"antagonized S. aureus-mediated cytotoxicity and inflammatory responses, and promoted cell viability"
same,secretion of IL-6 and CXCL8,[1]; [7],significantly reduced
same,secretion of IL-6 and CXCL8,"[1]; infection with MSSA, 24 h",reduced bacteria-induced secretion of IL-6 and CXCL8
same,wound healing (scratch assay),"[1]; infection with MSSA, 24 h",promoted wound healing in vitro of human keratinocytes following an infection with S. aureus
same,bacterial growth (GFP fluorescence) prevented and delayed,[2]; S. aureus MOI:0.1,up to 38 h
same,time for which a single dose prevented bacterial growth and protected the cells,[2]; S. aureus MOI:0.1,up to 42 h
same,time for which a single dose prevented bacterial growth and protected the cells,[2]; S. aureus MOI:1,up to 32 h
same,lysis of liposomes,[3],complete lysis of liposomes after 2 min
same,cell proliferation,[4],stimulates cell proliferation
same,IL-6 and CXCL8,HaCaT cells,not altered
same,wound healing (scratch assay),HaCaT cells,promoted wound healing in vitro
same,release of ATP (bacterial lysis),S. epidermidis,dose-dependent release of ATP
same,aggregation of bacteria,S. epidermidis; low concentrations,bacteria aggregates when exposed to low concentrations
same,relative susceptibility of Streptococcus species,[5],S. constellatus and S. anginosus were more susceptible to PLNC8 αβ than S. mutans
same,enhancement of the effects of antibiotics,[6],2-130 fold
same,hemolytic activity,human erythrocytes,no hemolytic activity was observed; also recorded: low hemolytic activity
